Test results reported in publication PMC5945891, “Proteomics of Stored Red Blood Cell Membrane and Storage-Induced Microvesicles Reveals the Association of Flotillin-2 With Band 3 Complexes” (Frontiers in Physiology, 2018).

B1: band 3 (natural protein, human (endogenous in RBCs), UniProt P02730 1-911, looked up)
chain: MEELQDDYEDMMEENLEQEEYEDPDIPESQMEEPAAHDTEATATDYHTTSHPGTHKVYVELQELVMDEKNQELRWMEAARWVQLEENLGENGAWGRPHLSHLTFWSLLELRRVFTKGTVLLDLQETSLAGVANQLLDRFIFEDQIRPQDREELLRALLLKHSHAGELEALGGVKPAVLTRSGDPSQPLLPQHSSLETQLFCEQGDGGTEGHSPSGILEKIPPDSEATLVLVGRADFLEQPVLGFVRLQEAAELEAVELPVPIRFLFVLLGPEAPHIDYTQLGRAAATLMSERVFRIDAYMAQSRGELLHSLEGFLDCSLVLPPTDAPSEQALLSLVPVQRELLRRRYQSSPAKPDSSFYKGLDLNGGPDDPLQQTGQLFGGLVRDIRRRYPYYLSDITDAFSPQVLAAVIFIYFAALSPAITFGGLLGEKTRNQMGVSELLISTAVQGILFALLGAQPLLVVGFSGPLLVFEEAFFSFCETNGLEYIVGRVWIGFWLILLVVLVVAFEGSFLVRFISRYTQEIFSFLISLIFIYETFSKLIKIFQDHPLQKTYNYNVLMVPKPQGPLPNTALLSLVLMAGTFFFAMMLRKFKNSSYFPGKLRRVIGDFGVPISILIMVLVDFFIQDTYTQKLSVPDGFKVSNSSARGWVIHPLGLRSEFPIWMMFASALPALLVFILIFLESQITTLIVSKPERKMVKGSGFHLDLLLVVGMGGVAALFGMPWLSATTVRSVTHANALTVMGKASTPGAAAQIQEVKEQRISGLLVAVLVGLSILMEPILSRIPLAVLFGIFLYMGVTSLSGIQLFDRILLLFKPPKYHPDVPYVKRVKTWRMHLFTGIQIICLAVLWVVKSTPASLALPFVLILTVPLRRVLLPLIFRNVELQCLDADDAKATFDEEEGRDEYDEVAMPV
notes: band 3 anion transporter of the human red blood cell membrane; bait captured with the anti-band 3 antibodies BRIC 6 and BRIC 170; Captured as native 'band 3 complexes' with no distinction between ankyrin, junctional and free complexes; also called band 3 complexes; source: endogenous, membranes of stored human RBCs and storage-induced microvesicles, 1% deoxycholate extract

What was measured:
[1] = target: the molecule itself; assay: SDS-PAGE; band around 220 kDa on Coomassie-stained SDS-PAGE of total membrane proteins and co-IP eluates from RBCs and MVs
band 3 [2] = target: B1; assay: co-IP; band 3 complexes captured from 1% deoxycholate extracts of storage-induced microvesicles (bags D-F; compared with RBCs of the same bags) on beads coated with BRIC 6 and BRIC 170; eluates analysed by western blot for flotillin-2, densitometry; settings: partners not purified
band 3 [3] = target: B1; assay: co-IP; band 3 complexes captured from 1% deoxycholate extracts of RBC membranes (short- and long-stored ECs, bags A-C) on beads coated with BRIC 6 and BRIC 170; eluates analysed by western blot (ADSL, α-adducin, flotillin-2), densitometry relative to Ponceau loading; settings: partners not purified

| fold decrease of the amount in band 3 complexes, MVs against RBCs (band 3 [2]) | fold change of the amount in band 3 complexes, long-stored against short-stored ECs (band 3 [3]) | Binder | stoichiometry N [1] |
| --- | --- | --- | --- |
|  |  | B1 | 2 |
| 1.3 fold | 1.6 fold | Flotillin-2 (natural protein, human (endogenous in RBCs), UniProt Q14254 1-428, looked up, flotillin-2, human, SwissProt Q14254; source: endogenous, membranes of stored human RBCs and storage-induced microvesicles, 1% deoxycholate extract) MGNCHTVGPNEALVVSGGCCGSDYKQYVFGGWAWAWWCISDTQRISLEIMTLQPRCEDVETAEGVALTVTGVAQVKIMTEKELLAVACEQFLGKNVQDIKNVVLQTLEGHLRSILGTLTVEQIYQDRDQFAKLVREVAAPDVGRMGIEILSFTIKDVYDKVDYLSSLGKTQTAVVQRDADIGVAEAERDAGIREAECKKEMLDVKFMADTKIADSKRAFELQKSAFSEEVNIKTAEAQLAYELQGAREQQKIRQEEIEIEVVQRKKQIAVEAQEILRTDKELIATVRRPAEAEAHRIQQIAEGEKVKQVLLAQAEAEKIRKIGEAEAAVIEAMGKAEAERMKLKAEAYQKYGDAAKMALVLEALPQIAAKIAAPLTKVDEIVVLSGDNSKVTSEVNRLLAELPASVHALTGVDLSKIPLIKKATGVQV |  |
